# Results published in the supplement of paper PMC9112550, “Optimization of the antimicrobial peptide Bac7 by deep mutational scanning” (BMC Biology, 2022).
# System: Escherichia coli TOP10
# Assay: shrunken log2 fold change of peptide-encoding DNA abundance (4.5 h post-induction vs induction); higher = less antimicrobial activity (less host growth inhibition)
# Conditions: time post-induction: 4.5 h; library: site-saturation at positions 5, 18, 19, 20
# 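Also: peptides expressed intracellularly from a pBAD plasmid library in pooled LB shake-flask culture, induced with 0.3% L-arabinose, DNA abundance read by NGS, three biological replicates, DESeq2 with apeglm shrinkage.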
row,Sequence,shrunken log2 fold change
1,RRIRMRPPRLPRPRPRPSWGPRP,0.155
2,RRIRMRPPRLPRPRPRPSWHPRP,-0.103
3,RRIRMRPPRLPRPRPRPSWTPRP,-0.0874
4,RRIRMRPPRLPRPRPRPSYLPRP,-0.336
5,RRIRMRPPRLPRPRPRPSYMPRP,-0.276
6,RRIRMRPPRLPRPRPRPSYSPRP,-0.157
7,RRIRMRPPRLPRPRPRPTARPRP,1.22
8,RRIRMRPPRLPRPRPRPTCDPRP,0.79
9,RRIRMRPPRLPRPRPRPTCHPRP,0.317
10,RRIRMRPPRLPRPRPRPTCTPRP,0.963
11,RRIRMRPPRLPRPRPRPTDIPRP,0.501
12,RRIRMRPPRLPRPRPRPTDKPRP,0.851
13,RRIRMRPPRLPRPRPRPTERPRP,0.582
14,RRIRMRPPRLPRPRPRPTFTPRP,0.141
15,RRIRMRPPRLPRPRPRPTGDPRP,1.3
16,RRIRMRPPRLPRPRPRPTGTPRP,0.407
17,RRIRMRPPRLPRPRPRPTHNPRP,0.275
18,RRIRMRPPRLPRPRPRPTHTPRP,1.03
19,RRIRMRPPRLPRPRPRPTIFPRP,-0.0388
20,RRIRMRPPRLPRPRPRPTIRPRP,0.0273
21,RRIRMRPPRLPRPRPRPTKWPRP,0.445
22,RRIRMRPPRLPRPRPRPTLPPRP,0.248

row,Sequence,shrunken log2 fold change
1,RRIRMRPPRLPRPRPRPTMDPRP,0.306
2,RRIRMRPPRLPRPRPRPTMPPRP,0.174
3,RRIRMRPPRLPRPRPRPTNQPRP,0.279
4,RRIRMRPPRLPRPRPRPTPFPRP,0.715
5,RRIRMRPPRLPRPRPRPTQAPRP,0.0839
6,RRIRMRPPRLPRPRPRPTQWPRP,0.479
7,RRIRMRPPRLPRPRPRPTSYPRP,-0.0286
8,RRIRMRPPRLPRPRPRPTTAPRP,1.19
9,RRIRMRPPRLPRPRPRPTTMPRP,0.558
10,RRIRMRPPRLPRPRPRPTWHPRP,0.309
11,RRIRMRPPRLPRPRPRPTWRPRP,0.894
12,RRIRMRPPRLPRPRPRPTYRPRP,0.422
13,RRIRMRPPRLPRPRPRPVAFPRP,0.579
14,RRIRMRPPRLPRPRPRPVCEPRP,0.353
15,RRIRMRPPRLPRPRPRPVFHPRP,-0.341
16,RRIRMRPPRLPRPRPRPVFNPRP,-0.0958
17,RRIRMRPPRLPRPRPRPVHCPRP,0.517
18,RRIRMRPPRLPRPRPRPVHYPRP,-0.0505
19,RRIRMRPPRLPRPRPRPVIWPRP,0.46
20,RRIRMRPPRLPRPRPRPVKGPRP,0.0743
21,RRIRMRPPRLPRPRPRPVKIPRP,0.514
22,RRIRMRPPRLPRPRPRPVLYPRP,-0.0553

row,Sequence,shrunken log2 fold change
1,RRIRMRPPRLPRPRPRPVMTPRP,0.148
2,RRIRMRPPRLPRPRPRPVPCPRP,0.291
3,RRIRMRPPRLPRPRPRPVPDPRP,0.239
4,RRIRMRPPRLPRPRPRPVPIPRP,0.0109
5,RRIRMRPPRLPRPRPRPVPMPRP,0.44
6,RRIRMRPPRLPRPRPRPVPWPRP,0.581
7,RRIRMRPPRLPRPRPRPVSTPRP,1.96
8,RRIRMRPPRLPRPRPRPVTPPRP,0.614
9,RRIRMRPPRLPRPRPRPVVEPRP,0.719
10,RRIRMRPPRLPRPRPRPVVGPRP,0.448
11,RRIRMRPPRLPRPRPRPVYFPRP,-0.0299
12,RRIRMRPPRLPRPRPRPVYVPRP,-0.161
13,RRIRMRPPRLPRPRPRPWANPRP,-0.0525
14,RRIRMRPPRLPRPRPRPWCCPRP,0.0172
15,RRIRMRPPRLPRPRPRPWCDPRP,0.274
16,RRIRMRPPRLPRPRPRPWDHPRP,0.0477
17,RRIRMRPPRLPRPRPRPWEFPRP,0.0443
18,RRIRMRPPRLPRPRPRPWEKPRP,0.217
19,RRIRMRPPRLPRPRPRPWESPRP,0.109
20,RRIRMRPPRLPRPRPRPWFCPRP,-1.02
21,RRIRMRPPRLPRPRPRPWHGPRP,-0.0653
22,RRIRMRPPRLPRPRPRPWHWPRP,0.0862

row,Sequence,shrunken log2 fold change
1,RRIRMRPPRLPRPRPRPWKCPRP,-0.174
2,RRIRMRPPRLPRPRPRPWKRPRP,-0.0605
3,RRIRMRPPRLPRPRPRPWMPPRP,0.0554
4,RRIRMRPPRLPRPRPRPWNAPRP,-0.0284
5,RRIRMRPPRLPRPRPRPWNPPRP,0.12
6,RRIRMRPPRLPRPRPRPWNSPRP,-0.00149
7,RRIRMRPPRLPRPRPRPWPNPRP,0.25
8,RRIRMRPPRLPRPRPRPWQPPRP,-0.0454
9,RRIRMRPPRLPRPRPRPWRRPRP,0.22
10,RRIRMRPPRLPRPRPRPWRVPRP,-0.158
11,RRIRMRPPRLPRPRPRPWSHPRP,-0.0815
12,RRIRMRPPRLPRPRPRPWSMPRP,-0.156
13,RRIRMRPPRLPRPRPRPWSWPRP,-0.00716
14,RRIRMRPPRLPRPRPRPWTGPRP,-0.217
15,RRIRMRPPRLPRPRPRPWYDPRP,0.0249
16,RRIRMRPPRLPRPRPRPYAKPRP,0.00938
17,RRIRMRPPRLPRPRPRPYDIPRP,0.0444
18,RRIRMRPPRLPRPRPRPYEIPRP,0.0237
19,RRIRMRPPRLPRPRPRPYEYPRP,0.0662
20,RRIRMRPPRLPRPRPRPYFNPRP,-0.822
21,RRIRMRPPRLPRPRPRPYGCPRP,-0.341
22,RRIRMRPPRLPRPRPRPYGQPRP,0.0303

row,Sequence,shrunken log2 fold change
1,RRIRMRPPRLPRPRPRPYHCPRP,-0.72
2,RRIRMRPPRLPRPRPRPYIMPRP,-0.12
3,RRIRMRPPRLPRPRPRPYLGPRP,-0.331
4,RRIRMRPPRLPRPRPRPYMNPRP,-0.737
5,RRIRMRPPRLPRPRPRPYPGPRP,0.0814
6,RRIRMRPPRLPRPRPRPYPVPRP,-0.237
7,RRIRMRPPRLPRPRPRPYSMPRP,-0.245
8,RRIRMRPPRLPRPRPRPYTIPRP,0.0978
9,RRIRMRPPRLPRPRPRPYVGPRP,0.0299
10,RRIRMRPPRLPRPRPRPYWAPRP,-0.0573
11,RRIRMRPPRLPRPRPRPYWRPRP,-0.159
12,RRIRMRPPRLPRPRPRPYYGPRP,0.0528
13,RRIRMRPPRLPRPRPRPYYSPRP,-0.0674
14,RRIRNRPPRLPRPRPRPAAMPRP,-0.223
15,RRIRNRPPRLPRPRPRPACNPRP,-0.148
16,RRIRNRPPRLPRPRPRPAGDPRP,0.395
17,RRIRNRPPRLPRPRPRPAGNPRP,0.0404
18,RRIRNRPPRLPRPRPRPAIMPRP,-0.0978
19,RRIRNRPPRLPRPRPRPANDPRP,-0.392
20,RRIRNRPPRLPRPRPRPANIPRP,-0.0793
21,RRIRNRPPRLPRPRPRPAPVPRP,0.406
